Measurements from PMC9065997, “Mitochondria-associated myosin 19 processively transports mitochondria on actin tracks in living cells” (The Journal of Biological Chemistry, 2022).

Biological target: the molecule itself
Assay: single-molecule photobleaching steps and spot intensity distribution (TIRF microscopy, HILO illumination); Halo-HM19 constructs expressed in living HeLa cells, stained with R110 Direct HaloTag ligand, spots in filopodia, 37 °C

B1: Halo-HM19^IQ3LZ (tail-truncated human myosin 19, residues 1-834, forced dimer with GCN4 leucine zipper, N-terminal HaloTag) (other)
chain: MLQQVNGHNPGSDGQAREYLREDLQEFLGGEVLLYKLDDLTRVNPVTLETVLRCLQARYMADTFYTNAGCTLVALNPFKPVPQLYSPELMREYHAAPQPQKLKPHVFTVGEQTYRNVKSLIEPVNQSIVVSGESGAGKTWTSRCLMKFYAVVATSPASWESHKIAERIEQRILNSNPVMEAFGNACTLRNNNSSRFGKFIQLQLNRAQQMTGAAVQTYLLEKTRVACQASSERNFHIFYQICKGASEDERLQWHLPEGAAFSWLPNPERSLEEDCFEVTREAMLHLGIDTPTQNNIFKVLAGLLHLGNIQFAASEDEAQPCQPMDDAKYSVRTAASLLGLPEDVLLEMVQIRTIRAGRQQQVFRKPCARAECDTRRDCLAKLIYARLFDWLVSVINSSICADTDSWTTFIGLLDVYGFESFPDNSLEQLCINYANEKLQQHFVAHYLRAQQEEYAVEGLEWSFINYQDNQPCLDLIEGSPISICSLINEECRLNRPSSAAQLQTRIETALAGSPCLGHNKLSREPSFIVVHYAGPVRYHTAGLVEKNKDPIPPELTRLLQQSQDPLLMGLFPTNPKEKTQEEPPGQSRAPVLTVVSKFKASLEQLLQVLHSTTPHYIRCIKPNSQGQAQTFLQEEVLSQLEACGLVETIHISAAGFPIRVSHRNFVERYKLLRRLHPCTSSGPDSPYPAKGLPEWCPHSEEATLEPLIQDILHTLPVLTQAAAITGDSAEAMPAPMHCGRTKVFMTDSMLELLECGRARVLEQCARCIQGGWRRHRHREQERQWRAVMLIQAAIRSWLTRKHIQRLHAAATVIKRAWQKWRIRMACLAAKELDGGTTHSYTSMKQLEDKVEELLSKNYHLENEVARLKKLVGERTSMKQLEDKVEELLSKNYHLENEVARLKKLVGERTSGSEL
modifications: rhodamine 110 (R110 Direct HaloTag ligand) on the HaloTag
notes: myosin 19 (Myo19, HM19), human, residues 1-834 (motor domain and three IQ motifs; 835 to 970 removed), cDNA from GeneCopoeia NM_001163735.1; also called R110-Halo-HM19^IQ3LZ; R110-Halo-HM19^IQ3-LZ; source: HeLa cells, transfected, in living cells; not shown: HaloTag, N-terminal, kept
  stoichiometry N: 2
